Laboratory results taken from PMC4264766, “Purification, Cloning, Characterization, and N-Glycosylation Analysis of a Novel β-Fructosidase from Aspergillus oryzae FS4 Synthesizing Levan- and Neolevan-Type Fructooligosaccharides” (PLoS ONE, 2014).

Substrate: OC[C@H]1O[C@@](CO)(O[C@H]2O[C@H](CO)[C@@H](O)[C@H](O)[C@H]2O)[C@@H](O)[C@@H]1O
Experiment: initial rates, glucose release by glucose assay kit, confirmed by HPLC; Michaelis-Menten fit
Type: biochemical, Aspergillus oryzae
Conditions: total activity (glucose release), 55°C, potassium phosphate buffer, 0.005–0.5 M sucrose
Source text: initial rates, glucose release by glucose assay kit, confirmed by HPLC; Michaelis-Menten fit on N.BfrA (native β-fructosidase BfrA)

B1: N.BfrA (native β-fructosidase BfrA) (Aspergillus oryzae) (protein)
chain: IDYNAAPPNLSTLANGSLYDTWRPRAHILPPNGRIGDPCGHYTDPDTGLFHVGFLYNGSGIAGATTDDMVRFRDLNPNGSQFIMPGGKNDPVAVFDGSVIPKGIDDKPTLLYTSVTSLPIHWSIPYNPGAETQSLAVTSNGGRNFTKLDRPPVIPLPPSDSDVTAFRDPYAFQSPELDAAADSAPGTWYTAISGGVHEDGPGQFLYRQDQKEMSLESWEYLGLWWQEKVNTTWGNGDWAGGWGFNFETGNVFGLNEEGYSVDGEMFMTLGTEGSGTPIVSQVSSIHDMLWAAGNVSNNGNVTFTPTMAGVFDWGASGYAAAGHILPATSQVSTKSGAPDRFISFVWLTGDLFEQAKGYPTSQQNWVGTLLLPRELHIKTISNVVDNELAREEGSSWRVERGQSGIELKTLGIDIARETREALMSGPKITEPERTSKEAGLVPFQVSPTTKFHVLTAQLSFPRSARNSDLQAGFQVLSSDLESTTIYYQFSNESIIVDRSNTSAAAKTTNGIVSTNESGRLRLFDLQGDAQEIETLDLTVVVDNSVLEIYANGRFALSTWARSWYKNSTDIKFYHNGAGEVTFSNVTVSEGLFEAWPERV
notes: native, purified from A. oryzae FS4 mycelia; N-glycosylated; 95 kDa by SDS-PAGE, monomer; CDS 1860 bp; mature 65298 Da calculated; 40 kDa contaminant band
For B1, the Km was 37.19 ± 5.28 mM, the Vmax was 1.28e+08 µM/min/mg and the kcat was 10000 ± 390 s⁻¹. For the same protein, the kcat/Km was 269000 ± 39700 M⁻¹ s⁻¹.
